These results are taken from patent US20170131282A1.

Holding throughout (experiment): cell-based or functional assay
Assay [1] concerns the target mouse chemokine CCL7 secreted in conditioned media of mouse adipocytes / adipose tissue (mouse) (UniProt Q03366).
The target of assay [2] is mouse chemokine receptor CCR3 (NM_009914) on mouse prostate tumor cells (TRAMP-C1P3, RM1-BM) (mouse) (UniProt P51678).
Assay [3] addresses human chemokine receptor CCR3 on human prostate tumor cells (PC-3, Du-145) (human) (UniProt P51677).
Chain of UniProt P51677 (P51677 whole entry): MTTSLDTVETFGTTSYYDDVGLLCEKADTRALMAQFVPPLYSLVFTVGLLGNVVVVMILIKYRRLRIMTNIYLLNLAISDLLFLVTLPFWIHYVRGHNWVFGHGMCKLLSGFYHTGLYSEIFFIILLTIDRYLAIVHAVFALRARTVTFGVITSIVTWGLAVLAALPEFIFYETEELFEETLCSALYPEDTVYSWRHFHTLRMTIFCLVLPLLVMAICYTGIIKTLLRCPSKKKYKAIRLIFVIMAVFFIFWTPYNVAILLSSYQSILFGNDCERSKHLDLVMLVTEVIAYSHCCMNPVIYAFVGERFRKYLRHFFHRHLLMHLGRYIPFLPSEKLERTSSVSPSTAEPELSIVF

Chain of UniProt Q03366 (Q03366 24-97): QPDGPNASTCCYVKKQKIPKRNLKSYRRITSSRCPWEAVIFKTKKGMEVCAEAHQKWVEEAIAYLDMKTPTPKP
Chain of UniProt P51678 (P51678 whole entry): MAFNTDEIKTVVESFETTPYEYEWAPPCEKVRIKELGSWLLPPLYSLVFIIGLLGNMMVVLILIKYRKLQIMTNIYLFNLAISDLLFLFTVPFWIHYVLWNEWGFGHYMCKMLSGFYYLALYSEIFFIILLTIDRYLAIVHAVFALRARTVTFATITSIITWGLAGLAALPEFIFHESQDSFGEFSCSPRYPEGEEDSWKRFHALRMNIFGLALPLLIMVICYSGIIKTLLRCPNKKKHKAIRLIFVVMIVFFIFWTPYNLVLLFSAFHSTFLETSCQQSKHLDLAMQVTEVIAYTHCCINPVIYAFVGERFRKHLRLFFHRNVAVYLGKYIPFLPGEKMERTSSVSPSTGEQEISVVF

In assay [1], “blocking antibody targeted against CCL7 (AF-456-NA, R&D System)” registered an inhibition of migration of PC-3 and Du-145 cells against CM-Ad (Boyden chamber) of 50 % inhibition; an inhibition of migration of PC-3 cells against CM of HFD AT-mu-PG (obese mice) of 60 % inhibition; an inhibition of migration of PC-3 cells against CM of ND AT-mu-PG (normal-weight mice) of 25 % inhibition.

In assay [2], “human chemokine CCL7 (from UniProt P80098 24-99) (ligand)” came in with a chemotaxis of TRAMP-C1P3 cells (Boyden chamber), dose from which it is seen above 50 ng/mL and a migration of RM1-BM cells (Boyden chamber) of 100 ng/mL. This substance had a migration of PC-3 and Du-145 prostate cells (Boyden chamber), dose from which the effect is significant in assay [3] above 50 ng/mL.
